According to the DeepSol protein solubility set:

Assay: soluble on expression in E. coli; label from the status in PepcDB or PDB records

Sequence | soluble on expression in E. coli
MIISPLFLKDKSNSEDDASWVSRMMPVDPERGFPLNSHRSWHGGIHIPHTDSGGTPEKIRAIADGTVHSLRQPVGDKKGIPPYNYNGATDCGYVLLKHETEIGSGENAKVVYFSLYMHLASIDAAVKTGEKIYRKDPIGTVGQVDGGNAVHFQIFCDDTNLTKLVGRTTPELDLTKNGRTDAVYGDMYFYLPTGTKFYSHAPANNATTTTEAETYTSTEPLFVSMSFDKGKCTMLTRKKGVFSIGKYSEVGEKLENTDGADYEYNVYAQAKKLYPQSQSAGYELLRFGRVINTDYETLVPADAPLWRTISYPGGKGVVNLALPAVKKFSDGDFPHWTGWQLIDDDTDENSQCNSEQVLCRIGDDMQGLICHLPLEWDASTLEKRLSWLKTTVINESLANQKASHQVDDTGNNASGYAFDNINPDMSVLNAQSTPSFEQAAKDTAMAEADWNALIEHAKALCFDVSGLPVGRVWHFNPISFIAHFRKCGWLDPEKIKSILTSALNKKRNVRKITLIEKASDSNYTFLNLAMRKYNILTPNRQSHFLGQGAVESDSLTAMQEVSQEQVIVNGKQTGGGIVIKSTLNESELGHWYGSEPSELDIYYSGNKYNKNGGLIAGSYSWSNGNCGDVDAQKFRGRGFKMLTGRDKYADYWVYRGWLLKSSFDAYWWDDVKYKSKNLKAMKKRPAIIDDPHKITASPYNCIDSGSFFITCFRRSTVKEIDKDQAESADDSVVTKVTQAINGGDIGLSQRKVMTNNAKGKLNDKY | not soluble
MSRCPEDSRTGNGRNGAPDPGELSAMVRKLEIRSRRLVNELFSGEYHSSFKGRGIEFSQVREYQYGDDVRTIDWNTSAHKNDLYVKIFTEERERILMLVLDGSGSMLFGSGRLKKELAAEVSAILAFSAVQNNDMVGLLVFSDTVETYIPPRKGRAHALVILNEIFSMRQCGRKTDIDAALSFLRRTQKRKSIIFLLTDLLGSEYERGMKLLNARHEFVLIHIGDPLDHELPHSGLLDLVDPETGERLTIDAGSRAFLARYAKEQRAKREAVQRQLSRMKVDAVFLDTGKSIIGGLNAFFRHRERKV | not soluble
MGHHHHHHSHMLPPPQPGAAGGSGQPRKCSSRRNAWGNLSYADLITRAIESSPDKRLTLSQIYEWMVRCVPYFKDKGDSNSSAGWKNSIRHNLSLHSRFMRVQNEGTGKSSWWIINPDGGKSGKAPRRRAVSMDNSNKYTKSRGRAAKKKA | soluble
MYPKQFLKFGETSLFQETVLRCLEVSDISEVFVVTNEAQKFFVIGQIKEAGYSIPPENILIEPEGKNTLPAIFFGMKEIEKKFGDSIVGVFSSDHVLDRAAMATISSAENLASDYLVTFGVVPTFPHTGYGYIKASEACSPGYRVSEFREKPDFETAKKYIEEGCLWNSGMFLFETRLFFEEARKHAPSVYGCFEKEGDINQIYECVDNISIDYGIMEKSDKVAVVRLDHKWSDLGNFAAIYDELEKDSVGNVIHDCDPMLLNSDGNLVYSRCGKIVSLIDVKDMVVVDTSDALLICPKSSSQKVKEIVSELKGRKDERAFIGQTVYRPWGSYTLLDASPGHKIKNITVLSDHKLSLQLHYHRSEHWVVVKGMACVEVDGKQFFLGPGESTFIRAGQKHRLSNPGKLPLEIIEVQLGELVDEEDIVRFDDVYGRRLEHHHHHH | soluble
MGSSHHHHHHSSGLVPRGSHMMEVGFLGLGIMGKAMSMNLLKNGFKVTVWNRTLSKCDELVEHGASVCESPAEVIKKCKYTIAMLSDPCAALSVVFDKGGVLEQICEGKGYIDMSTVDAETSLKINEAITGKGGRFVEGPVSGSKKPAEDGQLIILAAGDKALFEESIPAFDVLGKRSFYLGQVGNGAKMKLIVNMIMGSMMNAFSEGLVLADKSGLSSDTLLDILDLGAMTNPMFKGKGPSMNKSSYPPAFPLKHQQKDMRLALALGDENAVSMPVAAAANEAFKKARSLGLGDLDFSAVIEAVKFSRE | soluble
DVVSYVSHATQQRLQNLVEKISETAQQKNFSYKDDDRYEQASDVRAQLKFFEQLDQIEKQRKDEQEREILMRAAKSRSRQEDPEQLRLKQKAKEMQQQELAQMRQRDANLTALAAIGPRKKRKVDCPGPGSGAEGSGPGSVVPGSSGVGTPRQFTRQRITRVNLRDLIFCLENERETSHSLLLYKAFLK | soluble
MVRPEDFNSLELDNSLTDGETVHEMMAHKAGLTYNDFNILPGFINFGVHDVSLETNITKDLKIKAPLVSSPMDTVTESGMAIVMALYGGIGIIHGNFPKPEDQAAEVLKVKRFKQGYVMQPHCLSRDSTAFDMIQIKKKYGYTGAPVTEDGRVGSKLIGMVTSRDFDFITMDVAGQKGTPISDTNDVTPTTPITRIMVSVDQLHLGHINDAPELSQKKLKEHRLGKLPIVNDNGELCALLCRSDLLKARDYPMASYDSKGQLLCGAAVNTRGESQYTVDRVVEAGVDVLIIDSSNGSSTYQISMLRYIKEKHPHVQVIAGNVVTRAQAKLLIDQGADGLRIGMGSGSICITQDVMAVGRAQGTAVYDVARYANQRGIPIVADGGIRDVGYITKAISLGASAVMMGGLLAATTEAPGEYFWGPGGVRVKKYRGMGSLDAMEAHASSQDRYFTAHVFFSILSYF | not soluble
MGSLLSTPEGSNPIGKAIGFLSQRKRPAVELQDDFEPEVKVQRTCEVQDEEAEEENIEFEHEIDEEEIEEQDEIVHEQSENDQNLKDSDEKKNEIVALEKSTEKDEELPIPEKEAQVDQEDTLENLFEKETESNNTNEQQENVETNDTTSNFDLNEAEERVDVFSNGLLTSIQSTQPEIIA | soluble
MGSDKIHHHHHHMRIAVIGGGASGMVTAYLLDKQGHHITVFERQPMLGGHIRTLNKNVKPNQSDCNEMLESGVLEFPTVFHNFVALMQELGVELEPIRVGSALFPKDGSPFFSKVTNENNYTGIQRFIEYLRFDTIHTRSLGLWLKTRFAQMEDFYNRPLSQYVNNQSISNTWLKLLTMYSYSMPFELIDNFPAEMGIPMLRDYLAVKWLRIKGGVYSYIEKILERFQGEVLLNVEIVNISRSPDGVIIQRSHGEIQEFDKVVFATPPDQVIALLADPTEAEIKRFSDWKANYATTTIHTDIFMYDHHHIHHPSEFDFFQTDTQWGYNSCLNQLCGISSPQHYFLSFQLEELIAKDRIIHTQEHHTPLYTTESFRYRDEVVATNGENNTYYAGAYLGDGLHEGAIASAFRVAQLIGSPLAVSISGFNDRNADTVEIAADTAGIGKYLTHPRFHRS | not soluble
MINANRPIINLDLDLLRTFVAVADLNTFAAAAAAVCRTQSAVSQQMQRLEQLVGKELFARHGRNKLLTEHGIQLLGYARKILRFNDEACSSLMFSNLQGVLTIGASDESADTILPFLLSRISSVYPKLALDVRVKRNAYMVDMVKSQEVDLVVTTNQPHSLDCLNLRTSPTHWYCAAEYVLQRGEPVPLVLLDDPSPFRDMVLETLNAAGIPWRLAYVASTLPAVRAAVKAGLGVTARPVEMMSPDLRVLGAADGLPPLPDTEYLLCRDPNSQNELAMVIFHAMESYQNPWHYNQFSAEGGDDPLMVEGGFE | not soluble
MKPATYNTEAFDEWIRSRFVELNSQLEQLYYQQTDRANVQEVGTELKHTLESEGRELVKALLDEGNTDEGFDSAFDLLGNVGLYMAACRRHEITEPTRETTSPLLEASALAMHIGASIGVTPRFATAHLTTHNRAHNGIYKRFTDLPDEKLFVDYNTKGILAYKRASDALLKIQPLGISHPISHDLLRVTKQALQDVIESNQQLFNRLDTDRFFYCVRPYYKPYRVGSVVYRGANAGDFAGINVIDLTLGLCFANEASYSQMLVDKFLYMMPEDQQILRECMRRPNLMDDFLQAKGCIHQDWYQENLKLFIEVCELHGQTAIQHHNELVTKYIAEPSVSMEQQHLAKVTASGPPLHVLLASLERLRDRRAAVLRDDIRTRYYDLKKLKDSLRAAALEHHHHHH | soluble
MNSGRPETMENLPALYTIFQGEVAMVTDYGAFIKIPGCRKQGLVHRTHMSSCRVDKPSEIVDVGDKVWVKLIGREMKNDRIKVSLSMKVVNQGTGKDLDPNNVIIE | soluble
SPEFMVKAKSWTLKKHFQGKPTQSDFELKTVELPPLKNGEVLLEALFLSVDPYMRIASKRLKEGAVMMGQQVARVVESKNSAFPAGSIVLAQSGWTTHFISDGKGLEKLLTEWPDKLPLSLALGTIGMPGLTAYFGLLEVCGVKGGETVLVSAAAGAVGSVVGQIAKLKGCKVVGAAGSDEKIAYLKQIGFDAAFNYKTVNSLEEALKKASPDGYDCYFDNVGGEFLNTVLSQMKDFGKIAICGAISVYNRMDQLPPGPSPESIIYKQLRIEGFIVYRWQGDVREKALRDLMKWVLEGKIQYHEHVTKGFENMPAAFIEMLNGANLGKAVVTA | soluble
